Measurements taken from patent publication US9149523B2, “Compositions and methods for treating cancer and neurodegenerative diseases” (Yeda Research and Development Co. Ltd., priority 2010, dated 2015).

Tested on: HEK 293T cells
Assay: Cell detachment assay 24 h after transfection
Assay type: cell-based, human
Conditions: 24 h post-transfection, versus luciferase-transfected control cells, p<0.01 between the two constructs
Method: Cell detachment was assessed as described before (Widau, Jin et al. 2010), by counting the adherent cells left in the tissue culture plate after 24 h of transfection with either DAPk WT or ΔP-Loop. Briefly, cells were washed twice in PBS to remove detached cells. Then, adherent cells were trypsinized and counted with a Countess® Automated Cell Counter (Invitrogen). The extent of cell detachment is defined as (the number of control cells—the number of treated cells)/(the number of control cells), where control cells are HEK 293T cell transected with the irrelevant protein luciferase.
The functional effects of the GTP binding on DAPk's ability to induce some of its canonical phenotypic effects in cell cultures, namely cell rounding and detachment, and membrane blebbing, was assessed. These DAPk associated cellular changes are dependent on DAPk's catalytic activity and have been successfully used in other studies to assess DAPk activity in vivo (Widau, Jin et al. 2010). The necessity of the GTP-binding to the ROC domain for the extent of these effects on HEK 293T cells was examined. This was achieved by comparing DAPk WT to its P-Loop deletant counterpart. FIG. 6A presents a western blot analysis showing even expression levels between the constructs used in the cell detachment assay, ruling out any possibility of false results generated by uneven expression levels. […]

B1: WT protein: tagged human full-length death-associated protein kinase (DAPk), expressed by transfection (protein)
chain: MTVFRQENVDDYYDTGEELGSGQFAVVKKCREKSTGLQYAAKFIKKRRTKSSRRGVSREDIEREVSILKEIQHPNVITLHEVYENKTDVILILELVAGGELFDFLAEKESLTEEEATEFLKQILNGVYYLHSLQIAHFDLKPENIMLLDRNVPKPRIKIIDFGLAHKIDFGNEFKNIFGTPEFVAPEIVNYEPLGLEADMWSIGVITYILLSGASPFLGDTKQETLANVSAVNYEFEDEYFSNTSALAKDFIRRLLVKDPKKRMTIQDSLQHPWIKPKDTQQALSRKASAVNMEKFKKFAARKKWKQSVRLISLCQRLSRSFLSRSNMSVARSDDTLDEEDSFVMKAIIHAINDDNVPGLQHLLGSLSNYDVNQPNKHGTPPLLIAAGCGNIQILQLLIKRGSRIDVQDKGGSNAVYWAARHGHVDTLKFLSENKCPLDVKDKSGEMALHVAARYGHADVAQLLCSFGSNPNIQDKEEETPLHCAAWHGYYSVAKALCEAGCNVNIKNREGETPLLTASARGYHDIVECLAEHGADLNACDKDGHIALHLAVRRCQMEVIKTLLSQGCFVDYQDRHGNTPLHVACKDGNMPIVVALCEANCNLDISNKYGRTPLHLAANNGILDVVRYLCLMGASVEALTTDGKTAEDLARSEQHEHVAGLLARLRKDTHRGLFIQQLRPTQNLQPRIKLKLFGHSGSGKTTLVESLKCGLLRSFFRRRRPRLSSTNSSRFPPSPLASKPTVSVSINNLYPGCENVSVRSRSMMFEPGLTKGMLEVFVAPTHHPHCSADDQSTKAIDIQNAYLNGVGDFSVWEFSGNPVYFCCYDYFAANDPTSIHVVVFSLEEPYEIQLNQVIFWLSFLKSLVPVEEPIAFGGKLKNPLQVVLVATHADIMNVPRPAGGEFGYDKDTSLLKEIRNRFGNDLHISNKLFVLDAGASGSKDMKVLRNHLQEIRSQIVSVCPPMTHLCEKIISTLPSWRKLNGPNQLMSLQQFVYDVQDQLNPLASEEDLRRIAQQLHSTGEINIMQSETVQDVLLLDPRWLCTNVLGKLLSVETPRALHHYRGRYTVEDIQRLVPDSDVEELLQILDAMDICARDLSSGTMVDVPALIKTDNLHRSWADEEDEVMVYGGVRIVPVEHLTPFPCGIFHKVQVNLCRWIHQQSTEGDADIRLWVNGCKLANRGAELLVLLVNHGQGIEVQVRGLETEKIKCCLLLDSVCSTIENVMATTLPGLLTVKHYLSPQQLREHHEPVMIYQPRDFFRAQTLKETSLTNTMGGYKESFSSIMCFGCHDVYSQASLGMDIHASDLNLLTRRKLSRLLDPPDPLGKDWCLLAMNLGLPDLVAKYNTSNGAPKDFLPSPLHALLREWTTYPESTVGTLMSKLRELGRRDAADFLLKASSVFKINLDGNGQEAYASSCNSGTSYNSISSVVSR
modifications: left off: small tags and cut ends
notes: tagged human full-length death-associated protein kinase (DAPk), expressed by transfection
- cell detachment: 17.4%±7.4%
